Patent US20260008847A1 (ELPISCIENCE SUZHOU BIOPHARMA, published 2026)

Columns and labels:
[1] = biological target: T1, Human LILRB2 stably expressed on EL4 cells (EL4/LILRB2) (human, UniProt Q8N423 22-597); test: competitive FACS on EL4/LILRB2 cells, blockade of HLA-A2 binding
T1 construct: also called EL4-LILRB2 cells; cell membrane human LILRB2
Procedure: The blocking activities were determined by quantitating the blockade of the ligands binding to EL4/LILRB2 cells.

[2] = biological target: T2, 6×His-tagged human LILRB2 ECD recombinant protein (human, UniProt Q8N423 22-458, limits assumed); test: Octet, 1:1 model
T2 construct: Bought protein; not shown: 6×His-tag
T2 sequence (Q8N423 22-458 limits assumed): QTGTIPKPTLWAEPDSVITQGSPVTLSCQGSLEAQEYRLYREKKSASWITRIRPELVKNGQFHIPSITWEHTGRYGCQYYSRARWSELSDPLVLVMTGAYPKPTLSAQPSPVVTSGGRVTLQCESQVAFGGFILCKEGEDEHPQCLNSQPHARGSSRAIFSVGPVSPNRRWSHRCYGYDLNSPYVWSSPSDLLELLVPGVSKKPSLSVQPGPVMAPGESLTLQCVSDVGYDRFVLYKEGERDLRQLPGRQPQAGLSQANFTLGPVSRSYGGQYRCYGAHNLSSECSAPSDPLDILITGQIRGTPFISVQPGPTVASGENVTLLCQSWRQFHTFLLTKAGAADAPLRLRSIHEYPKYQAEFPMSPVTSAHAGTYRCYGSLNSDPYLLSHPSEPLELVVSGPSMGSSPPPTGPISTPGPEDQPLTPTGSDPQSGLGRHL

[3] = biological target: T2, 6×His-tagged human LILRB2 ECD …; test: Octet, 1:1 model; column printed as 'kd (1/s)', heads of c4 and c5 are swapped

T1 sequence (Q8N423 22-597 limits assumed): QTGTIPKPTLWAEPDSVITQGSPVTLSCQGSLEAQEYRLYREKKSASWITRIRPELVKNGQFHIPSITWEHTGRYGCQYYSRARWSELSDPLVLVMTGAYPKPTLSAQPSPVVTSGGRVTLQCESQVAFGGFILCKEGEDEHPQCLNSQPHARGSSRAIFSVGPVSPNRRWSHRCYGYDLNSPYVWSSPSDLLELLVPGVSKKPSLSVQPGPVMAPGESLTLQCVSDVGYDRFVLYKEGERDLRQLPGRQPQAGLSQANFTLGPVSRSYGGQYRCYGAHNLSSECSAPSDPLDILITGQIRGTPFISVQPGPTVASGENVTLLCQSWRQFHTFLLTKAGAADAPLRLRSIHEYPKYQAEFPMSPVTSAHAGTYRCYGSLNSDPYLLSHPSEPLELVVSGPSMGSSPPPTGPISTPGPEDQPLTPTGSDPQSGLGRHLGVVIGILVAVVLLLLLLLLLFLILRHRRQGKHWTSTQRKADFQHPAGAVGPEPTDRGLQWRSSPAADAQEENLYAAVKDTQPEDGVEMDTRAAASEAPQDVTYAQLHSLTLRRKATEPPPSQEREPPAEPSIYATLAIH

B1: 043c (antibody, V domains shown)
VH: QVQLQQSGAELAKPGASVKLSCKASGYTFTSYWMYWVKQRPGQGLEWIGHINPSSGYTKYNQKFKDKATLTADKSSSTAYMQLSSLTYEDSAVYYCARDPNWDNYWGQGTTLTVSS
VL: DIVMTQSHKFMSTSVGDRVSITCKASQDVSIAVAWYQQKPGQSPKLLIYSASYRYTGVPDRFTGSGSGTDFTFTISSVQAEDLAVYYCQQHYSTPYTFGGGTKLEIK
notes: Human IgG4 chimeric antibody with S228P mutation at the Fc region; also called chimeric antibody 043c; parental antibody 043c
[1]
  IC50: 0.48 nM
[2]
  Kd: 2.4 nM
[3]
  kon: 494000 M⁻¹ s⁻¹
